B1: TPR t1 (parent)
chain: GACCAAUCUGCCCUCAGAGCUCGAGAACAUCUUCGGAUGCAGAGGAGGCAGGCUUCGGUGGCGCGAUAGCGCCAACGUCCUCAACCUCCAAUGCAUCCCACCACAUGAUGAUGCCUGAAGAGCCUUGGUUUUUUG

Variants of: B1
Experiment: polymerase ribozyme fitness, log enrichment relative to wild type (log ratio); higher = more active; in vitro selection for triplet polymerase activity
Summary of the method: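 Libraries of mutants in each subunit of a heterodimeric triplet polymerase ribozyme were generated by PCR and transcribed. In triplicate, each went through one in vitro selection round: annealing with biotinylated primer, partner subunit and triplets; frozen incubation at −7 °C; gel excision of extended constructs; streptavidin-bead capture; RT-PCR. Fitness, taken from Illumina sequencing of input and output libraries, is the logarithm of a genotype's enrichment over wild-type enrichment, averaged across replicates with inverse-variance weights. The logarithm is base 2, and genotypes needed ≥10 input reads and ≥1 read per output to be kept.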

Variant | polymerase ribozyme fitness (log ratio)
GACCAAUCUGCCCGCAGAGCUCGAGAACAUCUUCGGAUGCAGAGGAGGCAGGCUUCGGUGGCGCGAUAGCUCCAACGUCCUCAACCUCCAAUUCAUCCCACCACUUGAUGAUGCCUGAAGAGCCUUGGUUUUUUG [U14G G71U G93U A105U] | -6.14
GACCAAUCUGCCCGCAGAGCUCGAGAACAUCUUCGGAUGCAGAGGAGGCAGGCUUCGGUGGCGCGAUAUCGCCAACGUCCUCAAACUCCAAUGCAUCCCACCACAUGAUGAUGCCUGAAGAGCCUUGGUUUUUUG [U14G G69U C85A] | -2.32
GACCAAUCUGCCCGCAGAGCUCGAGAACAUCUUCGGAUGCAGAGGAGGCAGGUUUCGGUGGCGCGAUAGCGCCAACGUCCUCAAACUGCAAUGCAUCCCACCACAUGAUGAUGCCUGAAGAGCCUUGGUUUUUUG [U14G C53U C85A C88G] | -3.97
GACCAAUCUGCCCGCAGAGCUCGAGAACAUCUUCGGAUGCAGAGGAGGCAGGCUUCGGUGGCGCGAUAGCGCCAACGUCCUCAACCUCCAAUGCAACCCACCACAUGAUAAUGCCUGAAGAGCCUUGGUUUUUUG [U14G U96A G110A] | -3.75
GACCAAUCUGCCCGCAGAGCUCGAGAACAUCUUCGGAUGCAGAGGAGGCAGGCUUCGGUGGCGCGAUAGCGACAACGUCCUCAACCUCCAAUGCAUCCCACCACAGGAUGAUGCCUGAAGAGCCUUGGUUUUUUG [U14G C72A U106G] | -3.74
GACCAAUCUGCCCUAAGAGCUCGUGAACAUCUUCGGAUGCAGAGGAGGCAGGCUUCGGUGGCGCGAUAGUGCCAACCUCCUCAACCUCCAAUGCAUCCCACCACAUGAUCAUGCCUGAAGAGCCUUGGUUUUUUG [C15A A24U C70U G77C G110C] | -6.25
GACCAAUCUGCCCGCAGAGCUCGAGAACAUCUUCGGAUGCAGAGGAGGCAGGCUUCGGUGGCGCGAUAGCGCCAACGUCCUCAAGCUCCAAUGCCUCCCAGCACAUGAUGAUGCCUGAAGAGCCUUGGUUUUUUG [U14G C85G A95C C101G] | -6.61
GACCAAUCUGCCCGCAGAGCUCGAGAACAUCUUCGGAUGCACAGGCGGCAGGUUUCGGUGGCGCGAUAGCGCCAACGUCCUCAACCUCCAAUGCAUCCCACCACAUGAUGAUGCCUGAAGAGCCUUGGUUUUUUG [U14G G42C A46C C53U] | -4.19
GACCAAUCUGCCCGCAGAGCUCGAGAACAUCUUCGGAUGCAGAGGAGGCAGGCUUCGGUGGUGCGAUAGCGCUAACGUCCUCAACCUCCAAUGCAUCCCACCACAUGAUGAUGCCUGAAGAGCCUUGGUUUUUUG [U14G C62U C73U] | -2.29
GACCAAUCUGCCCGCAGAGCUCGAGAACAUCUUCGGAUGCAGAGGAGGCAGGCUUCGGUGGCGCGAUAGCGCCAACGUCCUCAACCUCAAAUGCAUCCGACCACAUGAUGAUCCUUGAAGAGCCUUGGUUUUUUG [U14G C89A C99G G113C C115U] | -7.29
GACCAAUCUGCCCGCAGAGCUCGAGAACAUCUUCGGAUGCAGAGGAGGCAGGCUUCGGUGGCGCGAUAGCGCCAACGUCCUCAACCUCGAAUGCAUCCCACCACAUGAUGAUGCCUGAAGAGCCUUGGUUUUUUG [U14G C89G] | -3.56
GACCAAUCUGCCCUAAGAGCUCGAGAACCUCUUCGGAUGCAGAGGAGGCAGGCUUCGGUGGCGCGAUAGCGCCAACGACCUCAACCUCCAAUGCAUCCCACCACAUGAUGAUGCCUGAAGAGCCUUGGUUUUUUG [C15A A29C U78A] | -4.3
GACCAAUCUGCCCGCAGAGCUCGAGAACAUCUUCGGAUGCAGAGGAGGCAGGCUCCGGUGGCGCGAUAGAGCCAACGUCCUCAACCUCCAAUGCAUCCCACCACAUGAUGAUGCCUGAAGAGCCUUGGUUUUUUU [U14G U55C C70A G135U] | -4.4
GACCAAUCUGCCCGCAGAGCUCGAGAACAUCUUCGGAUGCAGAGGAGGCAGACUUCGGUGGCGCGAUAGCGCCAACGUCCUCAACCUCCAAUACAUCCCACCACAUGAUGAUGCCUGAAGAGCCUUGGUUUUUUG [U14G G52A G93A] | -3.09
GACCAAUCUGCCCGCAGAGCUCGAGAACAUCUUCGGAUGCAGAGGAGGCAGGCUUCGGUGGCGCGAUAGCGCCAACGUCCUCAACCUCCAAUGCAUCCCACCACAUGAUGAAGCCUGAAGAGCCUUGGUUUUUUG [U14G U112A] | -0.444
GACCAAUCUGCCCGCAGAGCUCGAGAACAUCUUCGGAUGCAGAGGAGGCAGGCUUCGGUGACGCGAUAGCGCCAACGUCCUCAACCUCCAAUGCAUCCCACCACAUGAUGAUGCCUGAAGAGCCUUGGUUUUUUG [U14G G61A] | -1.48
GACCAAUCUGCCCUAAGAGCUCGAGAACAUCUUCGGCUGCAGAGGAGGAAGGCUUCGGUGGCGCGAUAGCGGCAACGUCCUCAACCUCCAAUGCAUCCCACCACAUGAUGAUGCCUGAAGAGCCUUGGUUUUUUG [C15A A37C C49A C72G] | -2.75
GACCAAUCUGCCCUAAGAGCUCGAGAACUUCUUCGGAUGCAGAGGAGGCAGGCUUCGGUGGCGCGAUAGCGCCAACGUCCUCAACCUCCAAUGCAUCCCACCACAUGAUGAUGCCUGAAGAGCCUUGGUUUUUUG [C15A A29U] | -4.28
GACCAAUCUGCCCGCAGAGCUCGAGAACAUCUUCGGAUGCAGAGGAGGUAGGCUUCGGUGGCGCGAUAGCGCCAACGUCCUCAACCUCCAAUCCAUCCCAACACAUGAUGAUGCCUGAAGAGCCUUGGUUUUUUG [U14G C49U G93C C101A] | -4.35
GACCAAUCUGCCCGCAGAGCUCGAGAACAUCUUCAGAUGCAGAGGGGGCAGGCUUCGGUGGCGCGAUAGCGCCAACGUCCUCAACCUCCAAUGCAACCCACCACAUGAUGAUGUCUGAAGAGCCUUGGUUUUUUG [U14G G35A A46G U96A C114U] | -5.86
GACCAAUCUGCCCUAAGAGCUCGAGAGCAUCUUCGGAUACAGAAGAGGCAGGCUUCGGUGGCGCGAUAUCUCCAACGUCCUUAACCUUCAAUGCAUCCCACUACAUGAUGAUGCCUGAAGAGCCUUGGUUUUUUG [C15A A27G G39A G44A G69U G71U C82U C88U C102U] | -6.86

From the RNAGym collection of RNA variant scans (doi:10.1073/pnas.2313332121)
